From US20150351390A1, “COMPOSITIONS AND METHODS FOR AUXIN-ANALOG CONJUGATION” (PIONEER HI-BRED INTERNATIONAL, INC., priority 2012, published 2015)

B1: Br040953: GH3 protein, Bra040953 (protein, listed as Brassica rapa)
chain: MMIPSYDPNDTEAGLQLLEDLTTNADAIQQQVLHQILSQNSETEYLRSFLDGESCNIQENFKNKAPVVNYEDIKPFIQRISDGDSSDILSAQPITELLTSSGTSGGKPKFMPSTAEELDRKTFFYNMLVPVMNKFVNGLDEGKGMYLLFIKPEIKTPSGLQARPVLTSYYKSEQFKNRPFNKYNVITSPNDAILCEDSQQSMYCQLLCGLVQRSDVLRLGAIFASAFLRAVKFLENHFTELCADIRTGTVASWITDSGCRDSVLSILNGPNQELADEIEALFNAKSREGILKRIWPKTKYIEVIVTGSMAQYIPTLEFYSGGLPLVSVMYASSECFFGLNINPLCKPSDVSYTLLPNMAYFEFLPVDDKSHEETHLESRSTDDVSLTDKDRIVDLVSVEIGRYYELIITTFAGLYRYRVGDILKVTGFHNKAPQFSFVERRNVVLSIDTDKTSEEDLMKAVTQAKLNHLQGLFLLTEYTSYADTSSIPGHYVLFWELKPRYDNDPPKLDKKMMEDCCSEVEDCLDYVYRRCRNKDRSIGALEIRVVSLGTFDALMDFSISQGSSVNQYKTPRCVKSGGALQILDSRVIGRFFTKRVPQWEPLGLDS
B2: Br008836: GH3 protein, Bra008836 (protein, listed as Brassica rapa)
chain: MKPISNNDETWDATLKDLTSNVKEIQDNVLEEIITPNLKTEYLQRFNMDRFDKKLFKKNVPVVSYEDIKPDIDRVVNGESSDVISARPITGFLLSSGTSGGAQKMMPWNNKYLDNLTFAYDLRMHVITKHVKGLEEGKGMMFLFTKQETKTPSGLLARVATSSYFKSDYFTNRPSNWYYSYTSPDEVILCSNNTQSLYCHLLCGLLQRDEVVRMGSIFASVMVRAIKFLETYWEELCSNIRSGRLSEWITDLGCRSSVSLVLGGPRPDLADTIETICNQSSWKGIVTRIWPNTKYIETVVTGSMGQYVPTLNYYCSDLPLVSTTYGSSETTFGINVDPLCKPEDVSYAFMPNMSYFEFITMDGEKRDVVDLHDVKIGCTYEPVVTNFAGLYRMRVGDVLLVTGFYNNAPQFRFVRRENVVLSIDSDKTNEEDLFKAVSQAKLVLDSSDLFLEDFTSYADTSTFPGHYVIYVEVKAKGGNNHLELNEEVFSKCCSVMEDSLDNVYKRCRFKDGSVGPLEIRVVDKGTFESLMDFFINQGASTGQYKTPRCIKSGKALELMEDRVVAKFFSS
B3: Gm03g30590.1: GH3 protein, Glyma03g30590.1 (protein)
chain: MMTDEELLQKLEDLTKNAQHHHLETLRSILLHNGIVHYLQSFKKGSLLHLDPSTFARVVPLSTYEDYVDYINQMAEGKDDPFLSVDPLRCFFYSSGTSSSTMKPKLIPYFDSSLSKAASFIGHRGSVAVRQRLFPPRPEVNKILWFLYADNITTTKCGLKVMAASTYPLQSGNATPQQLAAFSSPLEVILATNVENQMYCHLLCGLRNLDLIDGIATPYAIGLIKAFGFLESKWEQLCDDLDHGFPCNEISEGAMREAVTNTLGGPQPELANRIRLICEGNNWGGIVYRLWPNIRYIRCVTTGSMKQYYQKLKYYAGEVPILGGDYFASECCVGLNLDIMQPPETTRFVMLPTFAYFEFLPFNINEDNDASKEAVDYSSVEVGKMYEVVVTTYRGYYRYRLGDIVRVVGFYNSSPLVEYVMRAPKTPAEIVTEKDLISAVENFQLALRGAMRIEIVEFASFLDQESMPKQLKVFVEVQEESDFLEDKLEESVRVLRSCISSLESGLGAIYKVQKDKGQLRSLRIFIIRPGAFDQLSELAIKNGTSASQYKPPKIIRNHEVVKLLEKLAFVAVSFDG
modifications: Glycine max
B4: Br016359: GH3 protein, Bra016359 (protein, listed as Brassica rapa)
chain: MSVISVLTEKANDKLKILEDLTSNVKQIQDNVLEEILTLNTNTEYLQRFFHGKFDKEIFKKNVPVGTYEDVKPYIQRVANGEPSNVISTRPITGFLLSSGTSGGAQKIMPWNEKFLDYLTFMYDLRMHVITNYVKGLEKGKAMMFYFTKLESTTASGLPARTASSSYLKSSYFKNRPCNWYYTYTSPDEVILCPDNKQSLYCHLLCGLVQRNEVTRMGSIFASVMVRAIKFLEDSWEELCSNIRSGQLSEWITDPGCRDSVSMVLGGPHPEVANTVEKICNEKCWKGILKRLWPRTKYIETIVTGSMAQYVPTLNYYCNDMLPLVSTIYASSETTFGLNLNPLCKPEDVSYTIMPNVSYFEFIPLDGDENDVVDLADLKLGCSYELVVTNFSGLYRIRVGDILLVTGFYNKAPQLRFIRRDNVVLSIDMDKTNEEDLFNAVNRAKLIINSSGLMLTDFTSHGDISTIPGHYVIYWEVEDKREDKTKHICMELKGDAFSECCLVMEDSFDNVYKRCRFREKTVGPLEIKVVLHGTFDSLMDFFISQGASIGQYKTPRCIGSGKPLELLEKNVVATFFSTGDCSFKN
B5: BjACC38383.1: GH3 protein, accession ACC38383.1 (protein, listed as Brassica juncea)
chain: MIIISYYNEEEKGKVLEDLTWNVKQIQDDLLKEILTLNSGTEYLQNFLHGSSAKELFKKNLPIVTYKDVKPYIDRVANGESSNIISTLPITNFFNSSGTSGGANKILPSNSKYLDGSAFSTDLLAHVIRKHVKGVERGKGMLFFLTGHDTKTPGGFPIEDGISWYLKSDYFKNRPSTWFYSYTSPDEVMLGSDLKENLYCHLLCGLVQRDEVTRIGSTFASGMVRVIKVLEDSWKELCSNIRSGNLSEWITDSGCRNSVSLVLGGQPRHKLSDEIESICSQKSWKGIMKKLWPQTLCIEAIATGSMAQYVPTLKHYSGDVPLVSTIYASSESMFGINTDPLCQPENTSYTLMPNISYFEFIPTEGGNGDVVDLADVKLGCSYQLLVTNLWGLYRMRIGDIVKVTGFHNKAPKFRVIGRENTLLSIDTDRTTEEYLLKAVNRARLVLESSDLRLVAFTSYADISSSPGHYVIYWEVKTKEEDMKELDEKTFLECCSVMEDTLDEEYMYCRANEFIGPLEIRVVNDGTFDSLMNLSISKGASITQYKYWRQMWLLDSSVLSEHLMCLSHDIWSKKRGRNVCVLSVLSWFLLTIF

Experiment: LC-MS assay of GH3 conjugation of 2,4-D with Asp or Glu
Format: biochemical
Details: LC-MS; 2,4-D with Asp
Method in brief: (§1)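 N-terminal His-tagged GH3 homologs, expressed in E. coli C41(DE3) and Ni-NTA purified, at 44 to 164 μg/mL incubated 3 h at 30 °C in 20 mM Tris-HCl pH 8.0, 5 mM MgCl2, 1 mM DTT, 5 mM ATP, 5 mM auxin (IAA, 2,4-D or dicamba) and 5 mM Asp or Glu. Conjugates quantified by LC-MS against standards after MeOH precipitation; kinetics from Michaelis-Menten fits of initial velocities.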
For B1, the “Detected auxin conjugates: 2,4-D-Asp” value was “Yes”.
For B2, the “Detected auxin conjugates: 2,4-D-Asp” value was “Yes”.
With B3 the “Detected auxin conjugates: 2,4-D-Asp” value was “Yes”.
With B4 the “Detected auxin conjugates: 2,4-D-Asp” value was “Yes”.
With B5 the “Detected auxin conjugates: 2,4-D-Asp” value was “No”.

Same assay, conditions: LC-MS; 2,4-D with Glu
For B1, the “Detected auxin conjugates: 2,4-D-Glu” value was “Yes”.
With B2 the “Detected auxin conjugates: 2,4-D-Glu” value was “Yes”.
For B3, the “Detected auxin conjugates: 2,4-D-Glu” value was “Yes”.
For B4, the “Detected auxin conjugates: 2,4-D-Glu” value was “No”.
In the case of B5, the “Detected auxin conjugates: 2,4-D-Glu” value is reported as “No”.

Experiment: LC-MS assay of GH3 conjugation of dicamba with Asp or Glu
Format: biochemical
Details: LC-MS; dicamba with Asp
Method in brief: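 GH3 superfamily homologs, found by Blast searches of public databases using AtGH3.17 (Q9FZ87), were synthesized with E. coli-optimized codons and an N-terminal his-tag, expressed in OverExpress C41(DE3) cells after 0.2 mM IPTG induction at 16° C., and Ni-NTA purified. Conjugation of dicamba with Asp or Glu was measured by LC-MS using conjugate standards.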
In the case of B1, the “Detected auxin conjugates: Dicamba-Asp” value is reported as “No”.
With B2 the “Detected auxin conjugates: Dicamba-Asp” value was “No”.
For B3, the “Detected auxin conjugates: Dicamba-Asp” value was “No”.
In the case of B4, the “Detected auxin conjugates: Dicamba-Asp” value is reported as “No”.
In the case of B5, the “Detected auxin conjugates: Dicamba-Asp” value is reported as “No”.

Same assay, conditions: LC-MS; dicamba with Glu
With B1 the “Detected auxin conjugates: Dicamba-Glu” value was “No”.
With B2 the “Detected auxin conjugates: Dicamba-Glu” value was “No”.
With B3 the “Detected auxin conjugates: Dicamba-Glu” value was “No”.
In the case of B4, the “Detected auxin conjugates: Dicamba-Glu” value is reported as “No”.
With B5 the “Detected auxin conjugates: Dicamba-Glu” value was “No”.

Experiment: LC-MS assay of GH3 conjugation of IAA with Asp or Glu
Format: biochemical
Details: LC-MS; IAA with Asp
Method in brief: as §1
In the case of B1, the “Detected auxin conjugates: IAA-Asp” value is reported as “Yes”.
With B2 the “Detected auxin conjugates: IAA-Asp” value was “Yes”.
With B3 the “Detected auxin conjugates: IAA-Asp” value was “Yes”.
For B4, the “Detected auxin conjugates: IAA-Asp” value was “Yes”.
With B5 the “Detected auxin conjugates: IAA-Asp” value was “Yes”.

Same assay, conditions: LC-MS; IAA with Glu
In the case of B1, the “Detected auxin conjugates: IAA-Glu” value is reported as “Yes”.
In the case of B2, the “Detected auxin conjugates: IAA-Glu” value is reported as “Yes”.
For B3, the “Detected auxin conjugates: IAA-Glu” value was “No”.
With B4 the “Detected auxin conjugates: IAA-Glu” value was “No”.
For B5, the “Detected auxin conjugates: IAA-Glu” value was “No”.
